Positions count from the first letter of the chain named. In names and notes the source's numbering stands. Several values for one entry are separate records, joined by “and”; a condition that tells them apart may be missing. Identical values can stand only once.
B1: VB11 (anti-Vβ17/anti-CD123) bispecific antibody (bispecific antibody, human IgG4 S228P, kappa, F234A L235A)
heavy 1: QVQLQESGPGLVKPSETLSLTCTVSGYSITSGYFWNWIRQPPGKGLEWIGYISYDGSNNYNPSLKSRVTISRDTSKNQFSLKLSSVTAADTAVYYCASPSPGTGYAVDYWGQGTLVTVSSASTKGPSVFPLAPCSRSTSESTAALGCLVKDYFPEPVTVSWNSGALTSGVHTFPAVLQSSGLYSLSSVVTVPSSSLGTKTYTCNVDHKPSNTKVDKRVESKYGPPCPPCPAPEAAGGPSVFLFPPKPKDTLMISRTPEVTCVVVDVSQEDPEVQFNWYVDGVEVHNAKTKPREEQFNSTYRVVSVLTVLHQDWLNGKEYKCKVSNKGLPSSIEKTISKAKGQPREPQVYTLPPSQEEMTKNQVSLSCAVKGFYPSDIAVEWESNGQPENNYKTTPPVLDSDGSFFLVSRLTVDKSRWQEGNVFSCSVMHEALHNRFTQKSLSLSLGK
light 1: DIQMTQSPSSLSASVGDRVTITCRSSQSLVHSNGNTYLHWYQQKPGKAPKFLIYKVSNRFSGVPSRFSGSGSGTDFTLTISSLQPEDFATYYCSQSTHVPFTFGQGTKLEIKRTVAAPSVFIFPPSDEQLKSGTASVVCLLNNFYPREAKVQWKVDNALQSGNSQESVTEQDSKDSTYSLSSTLTLSKADYEKHKVYACEVTHQGLSSPVTKSFNRGEC
heavy 2: EVQLVQSGAEVKKPGESLKISCKGSGYSFTSYWISWVRQMPGKGLEWMGIIDPSDSDTRYSPSFQGQVTISADKSISTAYLQWSSLKASDTAMYYCARGDGSTDLDYWGQGTLVTVSSASTKGPSVFPLAPCSRSTSESTAALGCLVKDYFPEPVTVSWNSGALTSGVHTFPAVLQSSGLYSLSSVVTVPSSSLGTKTYTCNVDHKPSNTKVDKRVESKYGPPCPPCPAPEAAGGPSVFLFPPKPKDTLMISRTPEVTCVVVDVSQEDPEVQFNWYVDGVEVHNAKTKPREEQFNSTYRVVSVLTVLHQDWLNGKEYKCKVSNKGLPSSIEKTISKAKGQPREPQVYTLPPSQEEMTKNQVSLWCLVKGFYPSDIAVEWESNGQPENNYKTTPPVLDSDGSFFLYSRLTVDKSRWQEGNVFSCSVMHEALHNHYTQKSLSLSLGK
light 2: EIVLTQSPGTLSLSPGERATLSCRASQSVSSSYLAWYQQKPGQAPRLLIYGASSRATGIPDRFSGSGSGTDFTLTISRLEPEDFAVYYCQQDYGFPWTFGQGTKVEIKRTVAAPSVFIFPPSDEQLKSGTASVVCLLNNFYPREAKVQWKVDNALQSGNSQESVTEQDSKDSTYSLSSTLTLSKADYEKHKVYACEVTHQGLSSPVTKSFNRGEC
B2: VB13 (Vβ17×Null) bispecific antibody (bispecific antibody, human IgG4 S228P, kappa, F234A L235A)
heavy 1: B1 heavy 1
light 1: B1 light 1
heavy 2: not shown
light 2: not shown
notes: Knob-into-hole human IgG4; also called Vβ17XNULL; V 17 null control bispecific
B3: VB17B25 (PSMB410 × B17B21-N33S) (bispecific antibody, human IgG1, kappa, L234A L235A)
chain: not shown
heavy: QVQLQESGPGLVKPSETLSLTCTVSGYSITSGYFWNWIRQPPGKGLEWIGYISYDGSNNYNPSLKSRVTISRDTSKNQFSLKLSSVTAADTAVYYCASPSPGTGYAVDYWGQGTLVTVSSASTKGPSVFPLAPSSKSTSGGTAALGCLVKDYFPEPVTVSWNSGALTSGVHTFPAVLQSSGLYSLSSVVTVPSSSLGTQTYICNVNHKPSNTKVDKKVEPKSCDKTHTCPPCPAPEAAGGPSVFLFPPKPKDTLMISRTPEVTCVVVSVSHEDPEVKFNWYVDGVEVHNAKTKPREEQYNSTYRVVSVLTVLHQDWLNGKEYKCKVSNKALPAPIEKTISKAKGQPREPQVYTLPPSREEMTKNQVSLSCAVKGFYPSDIAVEWESNGQPENNYKTTPPVLDSDGSFFLVSKLTVDKSRWQQGNVFSCSVMHEALHNRFTQKSLSLSPGK
light: B1 light 1 with N33S
notes: First chain is the PSMB410 scFv-Fc; also called Vβ17B25; Vβ17×PSMA

Experiments:
[1] = target: T1, T Cell Receptor Beta Variable 17 (Vβ17) on the surface of human T cells (human); experiment: flow cytometry, FLU MP 58-stimulated enriched CD8+ T cells, anti-human IgG4 Fc-PE
T1 construct: whole, on cells; Polyclonal Vβ17+ T cells of donors; also called V 17; Vb17
T1 sequence (A0A075B6N1 22-114): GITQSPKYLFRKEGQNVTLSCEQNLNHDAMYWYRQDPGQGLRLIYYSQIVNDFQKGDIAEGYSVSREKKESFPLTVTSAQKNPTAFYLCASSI
Protocol: Mouse anti-human IgG4 Fc-PE secondary antibody was used to detect the bispecific antibody.
Bispecific antibody binding affinities to CD8+ T cell were determined by flow cytometry.

[2] = target: T1, T Cell Receptor Beta Variable 17 (Vβ17) …; experiment: flow cytometry, binding to CD8+ T cells isolated from PBMCs, donor HPU 08694
[3] = target: T1, T Cell Receptor Beta Variable 17 (Vβ17) …; experiment: flow cytometry, binding to CD8+ T cells isolated from PBMCs, donor D203517
[4] = target: T1, T Cell Receptor Beta Variable 17 (Vβ17) …; experiment: flow cytometry, binding to CD8+ T cells isolated from PBMCs, donor HPU 09381
[5] = target: T1, T Cell Receptor Beta Variable 17 (Vβ17) …; experiment: flow cytometry, binding to CD8+ T cells isolated from PBMCs (only the Vβ17 non-depleted curve rises)
[6] = target: T1, T Cell Receptor Beta Variable 17 (Vβ17) …; experiment: flow cytometry, CD8+ T cells from Vβ17 non-depleted PBMCs
[7] = target: T2, CD123 on Kasumi-3 AML cells (human, UniProt P26951 19-378); experiment: flow cytometry, binding to Kasumi3 AML cells
T2 construct: whole, on cells; also called interleukin-3 receptor; IL-3R
T2 sequence (P26951 19-378): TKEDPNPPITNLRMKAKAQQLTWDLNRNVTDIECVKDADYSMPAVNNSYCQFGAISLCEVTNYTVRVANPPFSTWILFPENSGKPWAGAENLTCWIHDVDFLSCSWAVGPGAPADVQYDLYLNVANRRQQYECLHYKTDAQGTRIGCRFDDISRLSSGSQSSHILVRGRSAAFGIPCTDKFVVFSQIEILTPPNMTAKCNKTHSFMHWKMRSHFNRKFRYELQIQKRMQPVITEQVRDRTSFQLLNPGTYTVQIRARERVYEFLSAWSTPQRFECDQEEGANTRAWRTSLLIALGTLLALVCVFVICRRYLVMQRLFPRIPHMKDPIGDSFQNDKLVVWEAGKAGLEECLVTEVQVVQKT

[8] = target: T1, T Cell Receptor Beta Variable 17 (Vβ17) …; experiment: flow cytometry, % binding, pan T cells of donor NHV21-07171
Protocol: (§1) Binding assay was done with isolated Pan T cells from 2 donors. Pan T cells were isolated from Whole PBMCs. 1 μL Live dead (1:1000 diluted) and Fc Block 2 μL/well was added. 100 μL of the cell suspension was seeded in 96 well V bottom plate at 100,000 cell per well and incubated for 10 minutes at 4° C. The plate was washed by adding 190 μL FACS buffer spun at 1500 rpm for 5 minutes. 100 μL diluted test antibodies was added to the plate and the plate was incubated at 37° C. 5% CO₂ for 45 minutes. Wash step was repeated. 100 μL diluted Secondary antibody (0.5 μL/well in 100 μL FACS buffer) was added and the plate was incubated at 4° C. for 45 minutes. Wash step was repeated. 100 μL cytofix was added to the pellet and the plate was incubated at 4° C. for 10 minutes. Wash step was repeated. 100 μL FACS buffer was added to the pellet and sample was analyzed by Flow cytometry. Cells were gated on FSC/SSC, followed by live cell gating.

[9] = target: T1, T Cell Receptor Beta Variable 17 (Vβ17) …; experiment: flow cytometry, % binding, pan T cells of donor NHV21-07174
Protocol: as §1

[10] = target: T3, prostate-specific membrane antigen (PSMA) on C4-2B cells (human, UniProt Q04609 1-750); experiment: flow cytometry on C4-2B cells, APC secondary antibody
T3 construct: whole, on cells
T3 sequence (Q04609 whole entry): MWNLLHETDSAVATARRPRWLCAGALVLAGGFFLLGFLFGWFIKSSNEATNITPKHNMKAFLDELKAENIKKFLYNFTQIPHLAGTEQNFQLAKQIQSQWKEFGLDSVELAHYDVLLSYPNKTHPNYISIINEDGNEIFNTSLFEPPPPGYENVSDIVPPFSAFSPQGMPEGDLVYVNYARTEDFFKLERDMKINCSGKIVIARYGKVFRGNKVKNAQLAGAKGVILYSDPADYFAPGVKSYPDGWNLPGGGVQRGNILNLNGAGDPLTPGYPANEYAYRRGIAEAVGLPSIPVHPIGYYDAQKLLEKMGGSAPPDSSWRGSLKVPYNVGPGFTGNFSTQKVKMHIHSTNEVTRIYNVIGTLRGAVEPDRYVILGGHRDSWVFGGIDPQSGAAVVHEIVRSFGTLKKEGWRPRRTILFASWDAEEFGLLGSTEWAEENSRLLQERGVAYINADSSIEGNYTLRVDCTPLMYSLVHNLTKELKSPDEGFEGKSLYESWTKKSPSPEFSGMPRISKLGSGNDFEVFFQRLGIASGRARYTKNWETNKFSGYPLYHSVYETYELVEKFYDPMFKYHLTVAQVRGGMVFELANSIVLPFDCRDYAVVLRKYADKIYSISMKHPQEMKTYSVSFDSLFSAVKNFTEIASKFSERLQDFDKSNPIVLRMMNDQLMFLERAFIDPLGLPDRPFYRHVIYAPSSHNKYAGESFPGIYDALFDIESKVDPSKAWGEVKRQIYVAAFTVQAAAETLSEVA
Protocol: The C4-2B cells were centrifuged and re-suspended in DPBS and counted. 4 million cells were re-suspended in 8 mL of DPBS and 8 μL of Violet Fluorescent Dye was added and incubated for 15 min. in 4° C. Eight milliliters FACS buffer was added to neutralize mix and 200 μL per well was seeded. The plate was centrifuged and re-suspended in 100 μL of antibody dilutions accordingly and incubated for 30 min. in incubator. 10 μg/mL conc. of each antibodies were prepared in 200 μL stock and further diluted to 8 points by adding 60 μL to 120 μL of FACS serially buffer to get 3-fold dilution. 100 μL of FACS buffer were added to each well, centrifuged, re-suspended in 100 μL FACS buffer with 0.5 μL/well con. Secondary antibody tagged with APC & incubated for 30 min. 4° C. Next, 100 μL of FACS buffer was added to each well, centrifuged, re-suspended in 100 μL BD Cytofix & incubated for 10 min. 4° C. 100 μL of FACS buffer were added to each well, centrifuged, re-suspended in 100 μL FACS buffer, stored at 4° C. Data was acquired in Flow cytometer and the data was analyzed.

[11] = target: T1, T Cell Receptor Beta Variable 17 (Vβ17) …; experiment: flow cytometry, MFI, pan T cells of donor NHV21-07174
Protocol: as §1

[12] = target: T1, T Cell Receptor Beta Variable 17 (Vβ17) …; experiment: flow cytometry, MFI, pan T cells of donor NHV21-07171
Protocol: as §1

Binder	EC50 [1]	EC50 [2] [nM]	EC50 (read off the curve) [2] [µg/mL]	EC50 [3] [nM]	EC50 (read off the curve) [3] [µg/mL]	EC50 [4] [nM]	EC50 (read off the curve) [4] [µg/mL]	EC50 [5] [nM]	EC50 (read off the curve) [6] [µg/mL]	binding result [7]	EC50 [8] [µg/mL]	EC50 [9] [µg/mL]	EC50 [10] [µg/mL]	EC50 [11] [µg/mL]	EC50 [12] [µg/mL]
B1	1.35 µg/mL and 9 nM	1.9	~0.2	1.26	~0.2	0.8	~0.1	12.2	~0.2						
B2	2.8 µg/mL and 18.7 nM	1.5	~0.3	1.4	~0.2	1.5	~0.2	12.6	~0.3	no binding (tested: about 20 µg/mL)					
B3											0.3	0.2	2.1	~3	1.5
